This passage reports IC50 results from patent publication US20080220450A1, “Population Based Prediction Methods for Immune Response Determinations and Methods for Verifying Immunological Response Data” (Danisco US, Inc., Genencor Division, priority 2004, published 2008).

In the experiment the target is HLA-DR6(13) (human). Nature of the experiment: competition assay against a standard peptide on purified HLA class II.

The IC50 is the concentration that gives 50% inhibition. Lower therefore signals higher potency. “B. amyloliquifaciens subtilisin BPN' Y217L epitope peptide, amino acids 70-84 (from UniProt P00782 177-191)” yielded an IC50 of 0.69 nM.
